Results reported in the supplement of paper PMC11246515.
± gives the standard deviation of the averaged measurements.

Assay: total protein half-life in vivo (active degradation + dilution); higher = more stable protein
[1] = E. coli NCM3722 delta-clpP delta-lon delta-hslV, growth: N-lim chemostat, doubling time 6 h
[2] = E. coli NCM3722 delta-clpP, growth: N-lim chemostat, doubling time 6 h
[3] = E. coli NCM3722 delta-hslV, growth: N-lim chemostat, doubling time 6 h
[4] = E. coli NCM3722 delta-lon, growth: N-lim chemostat, doubling time 6 h
[5] = E. coli NCM3722 delta-smpB, growth: N-lim chemostat, doubling time 6 h
[6] = wild type E. coli NCM3722, growth: C-lim chemostat, doubling time 3 h
[7] = wild type E. coli NCM3722, growth: C-lim chemostat, doubling time 6 h
[8] = wild type E. coli NCM3722, growth: C-lim chemostat, doubling time 12 h
[9] = wild type E. coli NCM3722, growth: N-lim chemostat, doubling time 6 h
[10] = wild type E. coli NCM3722, growth: N-lim chemostat, doubling time 12 h
[11] = wild type E. coli NCM3722, growth: P-lim chemostat, doubling time 6 h
[12] = wild type E. coli NCM3722, growth: P-lim chemostat, doubling time 12 h

| Sequence | total protein half-life in vivo [1] [h] | total protein half-life in vivo [2] [h] | total protein half-life in vivo [3] [h] | total protein half-life in vivo [4] [h] | total protein half-life in vivo [5] [h] | total protein half-life in vivo [6] [h] | total protein half-life in vivo [7] [h] | total protein half-life in vivo [8] [h] | total protein half-life in vivo [9] [h] | total protein half-life in vivo [10] [h] | total protein half-life in vivo [11] [h] | total protein half-life in vivo [12] [h] |
| --- | --- | --- | --- | --- | --- | --- | --- | --- | --- | --- | --- | --- |
| MRIEEDLKLGFKDVLIRPKRSTLKSRSDVELERQFTFKHSGQSWSGVPIIAANMDTVGTFSMASALASFDILTAVHKHYSVEEWQAFINNSSADVLKHVMVSTGTSDADFEKTKQILDLNPALNFVCIDVANGYSEHFVQFVAKAREAWPTKTICAGNVVTGEMCEELILSGADIVKVGIGPGSVCTTRVKTGVGYPQLSAVIECADAAHGLGGMIVSDGGCTTPGDVAKAFGGGADFVMLGGMLAGHEESGGRIVEENGEKFMLFYGMSSESAMKRHVGGVAEYRAAEGKTVKLPLRGPVENTARDILGGLRSACTYVGASRLKELTKRTTFIRVQEQENRIFNNL | 6.23 ± 0.89 | 4.46 ± 0.16 | 4.34 ± 0.1 | 5.46 ± 0.17 | 4.22 ± 0.21 | 2.77 ± 0.19 | 6.13 ± 0.25 | 9.9351 ± 0.0054 | 4.71 ± 0.14 | 7.56 ± 0.75 | 6.2 ± 0.3 | 11 ± 0.55 |
| METNIVEVENFVQQSEERRGSAFTQEVKRYLERYPNTQYVDVLLTDLNGCFRGKRIPVSSLKKLEKGCYFPASVFAMDILGNVVEEAGLGQEMGEPDRTCVPVLGSLTPSAADPEFIGQMLLTMVDEDGAPFDVEPRNVLNRLWQQLRQRGLFPVVAVELEFYLLDRQRDAEGYLQPPCAPGTDDRNTQSQVYSVDNLNHFADVLNDIDELAQLQLIPADGAVAEASPGQFEINLYHTDNVLEACDDALALKRLVRLMAEKHKMHATFMAKPYEEHAGSGMHIHISMQNNRGENVLSDAEGEDSPLLKKMLAGMIDLMPSSMALLAPNVNSYRRFQPGMYVPTQASWGHNNRTVALRIPCGDRHNHRVEYRVAGADANPYLVMAAIFAGILHGLDNELPLQEEVEGNGLEQEGLPFPIRQSDALGEFIENDHLRRYLGERFCHVYHACKNDELLQFERLITETEIEWMLKNA | 3.73 ± 1.2 | 2.89 ± 0.19 | 0.535 ± 0.066 |  | 0.507 | 0.748 | 1.47 | 0.976 |  |  |  |  |
| MSKIRVLSVDDSALMRQIMTEIINSHSDMEMVATAPDPLVARDLIKKFNPDVLTLDVEMPRMDGLDFLEKLMRLRPMPVVMVSSLTGKGSEVTLRALELGAIDFVTKPQLGIREGMLAYNEMIAEKVRTAAKASLAAHKPLSAPTTLKAGPLLSSEKLIAIGASTGGTEAIRHVLQPLPLSSPALLITQHMPPGFTRSFADRLNKLCQIGVKEAEDGERVLPGHAYIAPGDRHMELSRSGANYQIKIHDGPAVNRHRPSVDVLFHSVAKQAGRNAVGVILTGMGNDGAAGMLAMRQAGAWTLAQNEASCVVFGMPREAINMGGVCEVVDLSQVSQQMLAKISAGQAIRI | 4.85 |  |  |  |  | 2.09 ± 0.19 | 3.21 ± 0.2 | 5.6 ± 0.28 |  |  |  | 9.95 |
| MRIVTAAVMASTLAVSSLSHAAEVGSGDNWHPGEELTQRSTQSHMFDGISLTEHQRQQMRDLMQQARHEQPPVNVSELETMHRLVTAENFDENAVRAQAEKMANEQIARQVEMAKVRNQMYRLLTPEQQAVLNEKHQQRMEQLRDVTQWQKSSSLKLLSSSNSRSQ [P0AE85] | 2.56 ± 0.11 | 4.81 | 1.65 | > 8 | 2.394 ± 0.017 |  | 2.391 ± 0.0025 |  |  | 3.54 ± 0.086 |  | 2.99 |
| MKKWAVIISAVGLAFAVSGCSSDYVMATKDGRMILTDGKPEIDDDTGLVSYHDQQGNAMQINRDDVSQIIER | 4.61 ± 0.25 | 5.4 | 4.24 ± 0.17 | 6.65 ± 0.55 | 3.25 ± 1.1 | 2.24 ± 0.32 | 4.63 ± 0.37 | 7.88 ± 0.34 | 4.76 ± 0.35 | 8.92 ± 2.6 | 3.68 ± 0.91 |  |
| MHYMKWIYPRRLRNQMILMAILMVIVPTLTIGYIVETEGRSAVLSEKEKKLSAVVNLLNQALGDRYDLYIDLPREERIRALNAELAPITENITHAFPGIGAGYYNKMLDAIITYAPSALYQNNVGVTIAADHPGREVMRTNTPLVYSGRQVRGDILNSMLPIERNGEILGYIWANELTEDIRRQAWKMDVRIIIVLTAGLLISLLLIVLFSRRLSANIDIITDGLSTLAQNIPTRLPQLPGEMGQISQSVNNLAQALRETRTLNDLIIENAADGVIAIDRQGDVTTMNPAAEVITGYQRHELVGQPYSMLFDNTQFYSPVLDTLEHGTEHVALEISFPGRDRTIELSVTTSRIHNTHGEMIGALVIFSDLTARKETQRRMAQAERLATLGELMAGVAHEVRNPLTAIRGYVQILRQQTSDPIHQEYLSVVLKEIDSINKVIQQLLEFSRPRHSQWQQVSLNALVEETLVLVQTAGVQARVDFISELDNELSPINADRELLKQVLLNILINAVQAISARGKIRIQTWQYSDSQQAISIEDNGCGIDLSLQKKIFDPFFTTKASGTGLGLALSQRIINAHQGDIRVASLPGYGATFTLILPINPQGNQTV | 6.89 |  |  |  |  | 3.09 ± 0.28 | 6.53 |  |  |  |  |  |
| MLTSFKLHSLKPYTLKSSMILEIITYILCFFSMIIAFVDNTFSIKIYNITAIVCLLSLILRGRQENYNIKNLILPLSIFLIGLLDLIWYSAFKVDNSPFRATYHSYLNTAKIFIFGSFIVFLTLTSQLKSKKESVLYTLYSLSFLIAGYAMYINSIHENDRISFGVGTATGAAYSTMLIGIVSGVAILYTKKNHPFLFLLNSCAVLYVLALTQTRATLLLFPIICVAALIAYYNKSPKKFTSSIVLLIAILASIVIIFNKPIQNRYNEALNDLNSYTNANSVTSLGARLAMYEIGLNIFIKSPFSFRSAESRAESMNLLVAEHNRLRGALEFSNVHLHNEIIEAGSLKGLMGIFSTLFLYFSLFYIAYKKRALGLLILTLGIVGIGLSDVIIWARSIPIIIISAIVLLLVINNRNNTIN |  |  |  |  | 5.65 ± 0.45 | 3.42 |  |  |  |  |  |  |
| MESLNQFVNSLAPKLSHWRRDFHHYAESGWVEFRTATLVAEELHQLGYSLALGREVVNESSRMGLPDEFTLQREFERARQQGALAQWIAAFEGGFTGIVATLDTGRPGPVMAFRVDMDALDLSEEQDVSHRPYRDGFASCNAGMMHACGHDGHTAIGLGLAHTLKQFESGLHGVIKLIFQPAEEGTRGARAMVDAGVVDDVDYFTAVHIGTGVPAGTVVCGSDNFMATTKFDAHFTGTAAHAGAKPEDGHNALLAAAQATLALHAIAPHSEGASRVNVGVMQAGSGRNVVPASALLKVETRGASDVINQYVFDRAQQAIQGAATMYGVGVETRLMGAATASSPSPQWVAWLQSQAAQVAGVNQAIERVEAPAGSEDATLMMARVQQHQGQASYVVFGTQLAAGHHNEKFDFDEQVLAIAVETLARTALNFPWTRGI | 6.21 ± 1.1 | 2.65 ± 0.05 | 3.12 ± 0.28 | 3.18 ± 0.22 | 2.86 ± 0.093 | 1.71 ± 0.65 | 5.22 | 5.67 ± 0.081 | 2.9 ± 0.053 | 4.45 ± 0.16 | 1.87 | 6.79 |
| MKRYTPDFPEMMRLCEMNFSQLRRLLPRNDAPGETVSYQVANAQYRLTIVESTRYTTLVTIEQTAPAISYWSLPSMTVRLYHDAMVAEVCSSQQIFRFKARYDYPNKKLHQRDEKHQINQFLADWLRYCLAHGAMAIPVY [P0ADU7] | 6.32 ± 0.34 | 5.73 ± 0.49 | 1.79 | 2.11 ± 0.32 | 2.25 ± 0.22 |  | 2.76 ± 0.49 |  | 2.03 | 2.84 | 3.67 ± 0.23 | 7.5 ± 0.71 |
